Source: US20230212222A1 (ANYGEN CO., LTD., priority 2020, published 2023)
Square brackets hold non-standard residues; d marks the D form. Ends that are not written are not given here. Peptide text beside a SMILES is read from it. * marks the point of attachment. 1,3‑difluorobenzhydryl = His with a 1-((2,4-difluorophenyl)(phenyl)methyl) group on the imidazole (N1); 4‑methoxylbenzhydryl = COc1ccc(C(c2ccccc2)*)cc1; Biotin = O=C1N[C@H]2[C@H](CS[C@H]2CCCCC(=O)*)N1; His(τ-Bzl) = N[C@@H](Cc1cn(Cc2ccccc2)cn1)C(=O)O; 4‑chlorobenzhydryl = Clc1ccc(C(c2ccccc2)*)cc1; Fm = 9H-fluoren-9-yl, c1ccc2c(c1)-c1ccccc1C2*; Bip = N[C@@H](Cc1ccc(-c2ccccc2)cc1)C(=O)O; dPhe(4-Br) = N[C@H](Cc1ccc(Br)cc1)C(=O)O; dPhe(4-Cl) = N[C@H](Cc1ccc(Cl)cc1)C(=O)O; dPhe(4-Me) = Cc1ccc(C[C@@H](N)C(=O)O)cc1; Trt = c1ccc(C(c2ccccc2)(c2ccccc2)*)cc1; dPhe(4-F) = N[C@H](Cc1ccc(F)cc1)C(=O)O; Dmt = Cc1cc(O)cc(C)c1C[C@H](N)C(=O)O; Benzhydryl = c1ccc(C(c2ccccc2)*)cc1; Palmitoyl = CCCCCCCCCCCCCCCC(=O)*; Myristoyl = CCCCCCCCCCCCCC(=O)*; Lauroyl = CCCCCCCCCCCC(=O)*; Decanoyl = CCCCCCCCCC(=O)*; Octanoyl = CCCCCCCC(=O)*; SO3H = O=S(=O)(O)*; Bn = c1ccc(C*)cc1

T1: GPR39 (Homo sapiens, UniProt O43194)
T1 sequence (O43194 1-453): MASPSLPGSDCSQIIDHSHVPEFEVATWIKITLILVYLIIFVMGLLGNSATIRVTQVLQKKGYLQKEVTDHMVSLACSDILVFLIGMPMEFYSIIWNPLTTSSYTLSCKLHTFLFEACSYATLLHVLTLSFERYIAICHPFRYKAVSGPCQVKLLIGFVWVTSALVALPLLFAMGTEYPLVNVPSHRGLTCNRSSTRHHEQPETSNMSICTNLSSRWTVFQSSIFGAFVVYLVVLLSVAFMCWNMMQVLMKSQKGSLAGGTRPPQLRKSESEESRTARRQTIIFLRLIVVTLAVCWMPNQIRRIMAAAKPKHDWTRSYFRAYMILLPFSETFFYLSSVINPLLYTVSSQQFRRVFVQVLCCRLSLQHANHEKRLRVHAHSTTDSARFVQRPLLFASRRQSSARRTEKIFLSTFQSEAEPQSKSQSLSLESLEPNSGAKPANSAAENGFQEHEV

T2: GPR39 (G protein-coupled receptor 39) (Homo sapiens (Human), UniProt O43194 1-453)
T2 sequence: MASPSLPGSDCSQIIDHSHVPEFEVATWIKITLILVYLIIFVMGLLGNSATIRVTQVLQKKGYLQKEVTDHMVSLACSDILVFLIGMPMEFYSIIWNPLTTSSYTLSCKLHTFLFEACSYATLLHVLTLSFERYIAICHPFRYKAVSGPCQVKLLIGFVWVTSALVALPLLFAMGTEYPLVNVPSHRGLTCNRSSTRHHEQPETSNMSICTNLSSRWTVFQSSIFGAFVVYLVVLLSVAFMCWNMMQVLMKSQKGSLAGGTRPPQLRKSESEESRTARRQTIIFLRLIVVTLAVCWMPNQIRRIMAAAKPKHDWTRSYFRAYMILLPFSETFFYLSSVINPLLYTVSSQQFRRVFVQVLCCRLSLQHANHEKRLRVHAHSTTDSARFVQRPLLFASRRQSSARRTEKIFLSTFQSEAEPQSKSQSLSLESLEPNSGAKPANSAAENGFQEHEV

B1: HKFY-12 (peptide)
peptide: H(Trt)K(Octanoyl)[dF]Y
B2: HKFY-13 (peptide)
peptide: H(Trt)K(Octanoyl)[dPhe(4-Cl)]Y
B3: HKFY-14 (peptide)
peptide: [dH](Trt)K(Octanoyl)[dPhe(4-Cl)][dY]
B4: HKFY-15 (peptide)
peptide: H(Trt)K(Octanoyl)[dPhe(4-Cl)][dY]
B5: HKFY-2 (peptide)
peptide: Biotin-H(Trt)K(Octanoyl)FY
B6: HKFY-16 (peptide)
peptide: H(Trt)[dK](Octanoyl)[dPhe(4-Cl)]Y
B7: HKFY-17 (peptide)
peptide: H(3,3‑diphenylethyl)K(Octanoyl)FY
B8: HKFY-18 (peptide)
peptide: H(Fm)K(Octanoyl)FY
B9: HKFY-19 (peptide)
peptide: H(phenethyl)K(Octanoyl)FY
B10: HKFY-20 (peptide)
peptide: H(4‑methoxylbenzhydryl)K(Octanoyl)FY
B11: HKFY-21 (peptide)
peptide: H(4‑chlorobenzhydryl)K(Octanoyl)FY
modifications: not fully specified
B12: HKFY-22 (peptide)
peptide: H(4‑methylbenzhydryl)K(Octanoyl)FY
B13: HKFY-23 (peptide)
peptide: H(adamantan‑1‑yl)K(Octanoyl)FY
B14: HKFY-24 (peptide)
peptide: H(Trt)K(Decanoyl)FY
B15: HKFY-25 (peptide)
peptide: H(Trt)K(Lauroyl)FY
B16: HKFY-3 (peptide)
peptide: H(Bn)K(Octanoyl)FY
B17: HKFY-26 (peptide)
peptide: H(Trt)K(Myristoyl)FY
B18: HKFY-27 (peptide)
peptide: H(Trt)K(Palmitoyl)FY
B19: HKFY-28 (peptide)
peptide: H(Trt)K(Octanoyl)[dPhe(4-F)]Y
B20: HKFY-29 (peptide)
peptide: H(Trt)K(Octanoyl)[dPhe(4-Br)]Y
B21: HKFY-30 (peptide)
peptide: H(Trt)K(Octanoyl)[dPhe(4-Me)]Y
B22: HKFY-31 (peptide)
peptide: [dH](Trt)K(Octanoyl)[dPhe(4-Me)]Y
B23: HKFY-32 (peptide)
peptide: H(1,3‑difluorobenzhydryl)K(Octanoyl)[dPhe(4-Me)]Y
B24: HKFY-33 (peptide)
peptide: H(Benzhydryl)K(Octanoyl)FY
B25: HKFY-35 (peptide)
peptide: H(Benzhydryl)K(Octanoyl)[dPhe(4-Me)]Y(SO3H)
B26: HKFY-4 (peptide)
peptide: [dH](Trt)K(Octanoyl)FY
B27: HKFY-36 (peptide)
peptide: H(Benzhydryl)K(Octanoyl)[dPhe(4-Me)][Dmt]
B28: HKFY-37 (peptide)
peptide: GSH(Trt)K(Octanoyl)FY
B29: HKFY-38 (peptide)
peptide: H(Trt)K(Octanoyl)FYSDQQARF
modifications: not fully specified; printed as His(trt)-Lys(caprylic)-Phe-Tyr-Ser-Asp-Gln-Gln-Ala-Arg-Phe
B30: HKFY-39 (peptide)
peptide: H(Trt)K(Octanoyl)FYSQNGARF
modifications: not fully specified; printed as His(trt)-Lys(caprylic)-Phe-Tyr-Ser-Gln-Asn-Gly-Ala-Arg-Phe
B31: HKFY-40 (peptide)
peptide: H(Trt)K(Octanoyl)FYSHQQARF
modifications: not fully specified; printed as His(trt)-Lys(caprylic)-Phe-Tyr-Ser-His-Gln-Gln-Ala-Arg-Phe
B32: HKFY-41 (peptide)
peptide: H(Trt)K(Octanoyl)FYQNGARF
B33: HKFY-42 (peptide)
peptide: H(Trt)K(Octanoyl)FYHQQARF
modifications: not fully specified; printed as His(trt)-Lys(caprylic)-Phe-Tyr-His-Gln-Gln-Ala-Arg-Phe
B34: HKFY-43 (peptide)
peptide: H(Trt)K(Octanoyl)FYQNQARF
modifications: not fully specified; printed as His(trt)-Lys(caprylic)-Phe-Tyr-Gln-Asn-Gln-Ala-Arg-Phe
B35: HKFY-44 (peptide)
peptide: H(Trt)K(Octanoyl)FYW
B36: HKFY-45 (peptide)
peptide: Biotin-H(Trt)K(Octanoyl)[Bip]Y
B37: HKFY-46 (peptide)
peptide: H(Trt)K(Octanoyl)FW
B38: HKFY-47 (peptide)
peptide: H(Trt)K(Octanoyl)YF
B39: HKFY-48 (peptide)
peptide: H(Trt)K(Octanoyl)YY
B40: HKFY-49 (peptide)
peptide: His(Trt)-Lys(Octanoyl)-Phe

The molecules below were run against T1, GPR39 (assay: not given).
`CCCCCCCC(=O)NCCCC[C@H](NC(=O)[C@@H](N)Cc1cn(Cc2ccccc2)cn1)C(=O)N[C@@H](Cc1ccccc1)C(=O)N[C@@H](Cc1ccc(O)cc1)C(=O)O` [HKFY-3, N2-(Nt-benzyl-L-histidyl)-N6-octanoyl-L-lysyl-L-phenylalanyl-L-tyrosine] (H-[His(τ-Bzl)]K(Octanoyl)FY-OH) was tested, and the “ECmax (-fold induction over basal)” value was 9.2 ± 2.58 -fold induction over basal.

Each molecule was assayed against T2, GPR39 (G protein-coupled receptor 39) (assay: cell-based or functional assay).
For B1, the “EC50 (luciferase reporter)” value was 35 nM and the “ECmax (-fold induction over basal)” value was 20.7 -fold induction over basal.
B2 was tested, and the “EC50 (luciferase reporter)” value was 14 nM and the “ECmax (-fold induction over basal)” value was 25.7 -fold induction over basal.
With B3 the “EC50 (luciferase reporter)” value was 20 nM and the “ECmax (-fold induction over basal)” value was 20.9 -fold induction over basal.
With B4 the “EC50 (luciferase reporter)” value was 98 nM and the “ECmax (-fold induction over basal)” value was 24.7 -fold induction over basal.
For B5, the “EC50 (luciferase reporter)” value was 140 nM and the “ECmax (-fold induction over basal)” value was 15 -fold induction over basal.
With B6 the “EC50 (luciferase reporter)” value was 240 nM and the “ECmax (-fold induction over basal)” value was 27.9 -fold induction over basal.
With B7 the “EC50 (luciferase reporter)” value was 8120 nM and the “ECmax (-fold induction over basal)” value was 20 -fold induction over basal.
B8 was tested, and the “EC50 (luciferase reporter)” value was 2290 nM and the “ECmax (-fold induction over basal)” value was 10 -fold induction over basal.
With B9 the “EC50 (luciferase reporter)” value was 24600 nM and the “ECmax (-fold induction over basal)” value was 18 -fold induction over basal.
With B10 the “EC50 (luciferase reporter)” value was 159000 nM and the “ECmax (-fold induction over basal)” value was 20.3 -fold induction over basal.
For B11, the “EC50 (luciferase reporter)” value was 136000 nM and the “ECmax (-fold induction over basal)” value was 18.3 -fold induction over basal.
B12 was tested, and the “EC50 (luciferase reporter)” value was 59800 nM and the “ECmax (-fold induction over basal)” value was 21.3 -fold induction over basal.
B13 was tested, and the “EC50 (luciferase reporter)” value was 2600 nM and the “ECmax (-fold induction over basal)” value was 15 -fold induction over basal.
For B14, the “EC50 (luciferase reporter)” value was 240 nM and the “ECmax (-fold induction over basal)” value was 7.03 -fold induction over basal.
B15 was tested, and the “EC50 (luciferase reporter)” value was 630 nM and the “ECmax (-fold induction over basal)” value was 7.72 -fold induction over basal.
B16 was tested, and the “EC50 (luciferase reporter)” value was 4130 nM and the “ECmax (-fold induction over basal)” value was 9.2 -fold induction over basal.
With B17 the “EC50 (luciferase reporter)” value was 280 nM and the “ECmax (-fold induction over basal)” value was 19.8 -fold induction over basal.
For B18, the “EC50 (luciferase reporter)” value was 560 nM and the “ECmax (-fold induction over basal)” value was 20.4 -fold induction over basal.
B19 was tested, and the “EC50 (luciferase reporter)” value was 74 nM and the “ECmax (-fold induction over basal)” value was 22.9 -fold induction over basal.
For B20, the “EC50 (luciferase reporter)” value was 310 nM and the “ECmax (-fold induction over basal)” value was 26.8 -fold induction over basal.
With B21 the “EC50 (luciferase reporter)” value was 8 nM and the “ECmax (-fold induction over basal)” value was 23.9 -fold induction over basal.
With B22 the “EC50 (luciferase reporter)” value was 20 nM and the “ECmax (-fold induction over basal)” value was 20.9 -fold induction over basal.
In the case of B23, the “EC50 (luciferase reporter)” value is reported as 2 nM and the “ECmax (-fold induction over basal)” value is reported as 21.5 -fold induction over basal.
For B24, the “EC50 (luciferase reporter)” value was 150 nM and the “ECmax (-fold induction over basal)” value was 20 -fold induction over basal.
B25 was tested, and the “EC50 (luciferase reporter)” value was 280 nM and the “ECmax (-fold induction over basal)” value was 18.9 -fold induction over basal.
B26 was tested, and the “EC50 (luciferase reporter)” value was 130 nM and the “ECmax (-fold induction over basal)” value was 16.8 -fold induction over basal.
In the case of B27, the “EC50 (luciferase reporter)” value is reported as 150 nM and the “ECmax (-fold induction over basal)” value is reported as 9.9 -fold induction over basal.
For B28, the “EC50 (luciferase reporter)” value was 1840 nM and the “ECmax (-fold induction over basal)” value was 16 -fold induction over basal.
B29 was tested, and the “EC50 (luciferase reporter)” value was 3500 nM and the “ECmax (-fold induction over basal)” value was 16.5 -fold induction over basal.
In the case of B30, the “ECmax (-fold induction over basal)” value is reported as 12.1 -fold induction over basal.
With B31 the “EC50 (luciferase reporter)” value was 1300 nM and the “ECmax (-fold induction over basal)” value was 13.4 -fold induction over basal.
With B32 the “EC50 (luciferase reporter)” value was 9550 nM and the “ECmax (-fold induction over basal)” value was 12.2 -fold induction over basal.
B33 was tested, and the “EC50 (luciferase reporter)” value was 1580 nM and the “ECmax (-fold induction over basal)” value was 11.8 -fold induction over basal.
B34 was tested, and the “EC50 (luciferase reporter)” value was 1210 nM and the “ECmax (-fold induction over basal)” value was 12.1 -fold induction over basal.
For B35, the “EC50 (luciferase reporter)” value was 370 nM and the “ECmax (-fold induction over basal)” value was 20 -fold induction over basal.
B36 was tested, and the “EC50 (luciferase reporter)” value was 140 nM and the “ECmax (-fold induction over basal)” value was 21 -fold induction over basal.
B37 was tested, and the “EC50 (luciferase reporter)” value was 260 nM and the “ECmax (-fold induction over basal)” value was 20 -fold induction over basal.
B38 was tested, and the “EC50 (luciferase reporter)” value was 300 nM and the “ECmax (-fold induction over basal)” value was 13 -fold induction over basal.
With B39 the “EC50 (luciferase reporter)” value was 330 nM and the “ECmax (-fold induction over basal)” value was 14.4 -fold induction over basal.
In the case of B40, the “EC50 (luciferase reporter)” value is reported as 320 nM and the “ECmax (-fold induction over basal)” value is reported as 18.3 -fold induction over basal.
